The record followed here is US20220017629A1 (SHANGHAI PHARMAEXPLORER, published 2022).

Residue numbers refer to the chain shown, from its start.

B1: MAb047 (antibody, IgG2c, V domains shown)
VH: EVQLVESGGGLVKPGGSLKLSCAASGFTFSDYGMYWIRQAPEKGLEWVAYISNGGSSIYYADTVKGRFTVSRDNAKNTLFLQMTSLRSEDTAIYYCARGGELGFAYWGQGTLVTVSA
VL: DIQMTQSPASLSVSVGETVTITCRASENIYSNLAWYQQKQGKSPQLLVYAAINLVEGVPSRFSGSGSGTQYSLKINSLQSEDFGSYFCQHFWGLPYTFGGGTKLE
B2: MAb064 (antibody, IgG2c, V domains shown)
VH: QVQLKESGPGLVAPSQTLSITCSVSGFSLTNYAVSWVRQPPGKGLEWLGVMWGDGNTNYHSTLISRLSISKDNSKSQVFLKLNSLQTDDTATYYCARSSGWYFDVWGTGTTVTVSS
VL: DIQMTQTTPSLSVTLGDRVTIRCRASQDINNYLNWYQQKPDGTVKLLIYYTSESRSGVPSRFSGSGSGTDYSLTISNLEQEDIATYFCQQGYALPPAFGGGTKLEIK
B3: MAb053 (antibody, IgG2c, V domains shown)
VH: QVQLKQSGPGLVQPSQSLSIICTVSGFSLSDYGVMWVRQSPGKGLEWLGVIWSGGSTDYNAAFTSRLSISRDNSKRQVIFKMNSLQAEDTAIHYCVRETMDYWGQGTSVTVS
VL: DIQMTQTTSSLSASLGDRVTISCRASQDISNYLNWYQQRPDGTVKRLIYYTSRLHSGVPSRFSGSGSGTDYSLTISSLEQEDIATYFCQQAHTLPWTFGGGTKLEIK
B4: MAb055 (antibody, IgG1, V domains shown)
VH: QVQLKQSGPGLLQPSQSLSITCTVSGFSLDEYGVHWFRQSPGKGLEWLGVIWSGGSTDYNAAFISRLSIRKDNSKSQIFFNMNSLQADDTAIYYCVREEWEYWGQGTTLTVS
VL: B3 VL with A25P, S30D, Y36F, V44I, R46L, S76N, S77N, W96Y
B5: MAb034 (antibody, IgG1, V domains shown)
VH: EVQLQQSGPVLVKPGASVKMSCKASGYTFTDFYMNWMRQSHGKSLEWIGVIDPYNGNTSYNQKFKGKATLTVDKSSSTAYMELNSLTSEDSAVYYCARGNYYYYAMDYWGQGTSVTVSS
VL: DIVLTQSPASLAVSLGQRATISCRASESVSIHGTHLMYWYQQKPGQPPKLLIYAASNLESGVPARFSGSGSETDFTLNIHPVEEEDAATFFCQQSIEDPPTFGGGTKLEIK
B6: MAb058 (antibody, IgG1, V domains shown)
VH: EVQLQQSGPVLVKPGAAVKMSCKASGYIFTDYYIHWVKLSRGESLEWIGLINPYNGGTNYNQQFTGKATLTVDKSSSTAYVELNSLTSGDSAVYYCVRRTGYFDYWGQGTTLTVSS
VL: DVVMTQTPLSLPVSLGDQASISCRSSQSLVHSNGNTYLHWYLQKPGQSPKLLIYKVSNRFSGVPDRFSGSGSGTDFTLKISRVEAEDLGVYFCSQTTHVPYTFGGGTKLEIK
B7: MAb041 (antibody, IgG1, V domains shown)
VH: EVQLVESGGGLVKPGGSLKLSCAVSGFTFSNSAMSWVRQTPEKRLEWVATITDGGDYTYYSDNVKGRFTISRDNAKNNLYLQMSHLKSEDTAMYYCVRGISYWGQGTLVTVS
VL: DIVLTQSPASLAVSLGQRATISCRASKSVSTSSDSYMHWYQQKPGQPPKLLIKYASNLESGVPVRFSGSGSGTDFTLNIHPVEEEDAATYYCQHSREFPWTFGGGTKLEIK
B8: MAb049 (antibody, IgG1, V domains shown)
VH: EVQLQQSGPELVKPGASVKISCKASGHTLTDYYMNWVKQSHGKSPEWIGDINPNNDGIDYNQKFRGKAILTVDKSSSSFYMELRSLTSEDSAVYYCVGFVRGYFVSWGQGTTLTVSS
VL: DIQMTQTTSSLSASLGDRVTINCRASQDISNYLNWYQQKPDGTVKLLIYYTSRLRSGVPSRFSGSGSGTDYSLTINNLDQEDFATYFCQQGNTLPWTFGGGTKLEI
B9: MAb035 (antibody, IgG1, V domains shown)
VH: QVQLQQSGAELVRPGASVTLSCKASDYTFTDYEMHWVYQTPVHGLEWIGAIDPETGGTAYNQKFKDKAILTADKSSNTAYMELRSLTSEDSAVYFCTKTGYQFDYWGQGTTLTVSS
VL: DIVMTQSQKFMSTSVGDRVSVTCKASQNVGSNVAWYQQKPGQSPKALIYSASYRYSGVPDRFAGSGSGTDFTLTISNVQSEDLADYFCQQYNSHPYTFGGGTKLEIK
B10: MAb033 (antibody, IgG1, V domains shown)
VH: QVQLQQSGAELVRPGTAVRVSCKASGYAFTNYFIEWVKQRPGQGLEWIGVINPGSGDTYYSEKFQGKATLTADKSSSTAYMQLSSLTSEDSAVYFCAREDDYSWFTYWGQGTLVTVSA
VL: DIVLTQSPASLAVSLGQRATISCRASENVDNYGISFMHWYRQKPGQPPKLLIYRASNLESGIPARFSGSGSRTDFTLTINPVETDDVATYYCQQSNKDPYTFGGGTKLEIK
B11: Humab035-24 (antibody, V domains shown)
VH: QVQLVQSGAEVKKPGASVKVSCKASDYTFTDYEMHWVRQAPGQGLEWIGAIDPETGGTAYNQKFKDRVTMTADTSTSTVYMELSSLRSEDTAVYYCAKTGYQFDYWGQGTTVTVSS
VL: DIQMTQSPSSVSASVGDRVTITCKASQNVGSNVAWYQQKPGKAPKALIYSASYRYSGVPSRFSGSGSGTDFTLTISSLQPEDFATYYCQQYNSHPYTFGQGTKLEIK

One test concerns the target T1, OX40 (antigen of the competitive ELISA of Example 5) (UniProt P43489 29-214).
T1 sequence (looked up): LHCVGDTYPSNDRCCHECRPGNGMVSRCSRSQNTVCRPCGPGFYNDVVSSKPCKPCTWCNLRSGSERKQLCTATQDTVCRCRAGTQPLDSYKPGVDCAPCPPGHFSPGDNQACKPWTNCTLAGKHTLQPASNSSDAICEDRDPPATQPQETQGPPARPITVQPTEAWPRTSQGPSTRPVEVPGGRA
Put plainly: competitive ELISA; competitor PF-04518600. In general terms: An ELISA detects its analyte on a solid surface through an enzyme-linked reagent.
For B1, the percentage of competition is -2%.
On the same count and under the same terms, to B2 belongs 4%; to B3, 93%; to B4, 95%.
As for B5, the percentage of competition is 5%.
On to B6, for which the percentage of competition is 11%.
For B7, the percentage of competition was -8%.
For the molecule B8, the percentage of competition is -2%.
Turning to B9, the percentage of competition is -5%.
On to B10, for which the percentage of competition is -7%.

In the next test the target is T2, human-derived OX40, full-length, on cells (human, UniProt P43489 29-277).
T2 construct: whole, on cells; also called hOX40; CHOK1-hOX40
T2 sequence (looked up): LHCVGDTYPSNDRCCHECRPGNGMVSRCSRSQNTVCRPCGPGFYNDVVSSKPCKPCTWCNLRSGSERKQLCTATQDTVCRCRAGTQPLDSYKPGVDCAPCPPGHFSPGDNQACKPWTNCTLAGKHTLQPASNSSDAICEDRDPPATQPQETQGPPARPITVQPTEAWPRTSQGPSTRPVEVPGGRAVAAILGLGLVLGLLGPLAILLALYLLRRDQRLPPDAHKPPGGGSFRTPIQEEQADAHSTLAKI
Kind of test: FACS on cells expressing human OX40 (CHOK1-hOX40).
Turning to B11, the binding result is “binds”.

For another test, the target named is T1, OX40 (antigen of the competitive ELISA …). Put plainly: competitive ELISA; competitor BMS-986178.
In the case of B1, the percentage of competition turned out to be 0%.
For B2, the percentage of competition amounted to 1%.
Consider B3, for which the percentage of competition stood at 2%.
As for B4, the percentage of competition turned out to be 3%.
As to B5, the percentage of competition turned out to be 93%.
As for B6, the percentage of competition was -4%.
Take B7: the percentage of competition was -6%.
As for B8, the percentage of competition was determined as 0%.
For B9, the percentage of competition was determined as 90%.
As for B10, the percentage of competition was found to be 81%.

For the next test the target is unchanged. Kind of test: competitive ELISA; competitor MEDI0562.
Take B1: the percentage of competition was 97%.
In the case of B2, the percentage of competition is 96%.
As for B3, the percentage of competition stood at 11%.
With B4, the percentage of competition was 16%.
Consider B5, for which the percentage of competition worked out at 13%.
The same measure, in the same setting: to B6 belongs 26%; to B7, 2%; to B8, 97%.
B9: the percentage of competition amounted to 59%.
Regarding B10, the percentage of competition is 7%.

The target is the same in another test. Put plainly: competitive ELISA; competitor MOXR0916.
As to B1, the percentage of competition is -3%.
For the molecule B2, the percentage of competition was 90%.
Turning to B3, the percentage of competition was -2%.
Still for that read-out and setting: in the case of B4 it was -3%.
As for B5, the percentage of competition was 0%.
B6: the percentage of competition was -3%.
Turning to B7, the percentage of competition came to 1%.
Still for that read-out and setting: in the case of B8 it was 90%; in that of B9, 3%.
Regarding B10, the percentage of competition was -1%.
